Reference: patent US20160297884A1 (Pfizer, published 2016)

T1: Human BCMA (human, UniProt Q02223 1-54, limits assumed)
T1 construct: Soluble analyte in SPR; construct not described; also called huBCMA; B-cell maturation antigen
T1 sequence (looked up): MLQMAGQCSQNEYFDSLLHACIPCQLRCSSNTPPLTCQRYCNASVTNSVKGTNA


Experiments:
Human BCMA [1] = biological target: T1, Human BCMA; experiment: SPR, IgG immobilised, 25 C
Procedure: (§1) All experiments were performed on a Bio-Rad Proteon XPR36 surface Plasmon resonance biosensor (Bio-Rad, Hercules, Calif.). […] The analysis temperature for the immobilization was 25° C. and the running buffer was HBS-T+(10 mM HEPES, 150 mM NaCl, 0.05% Tween-20, pH 7.4). Channels were activated in the analyte (horizontal) direction by injecting a mixture of 1 mM ECD and 0.25 mM NHS for 3 minutes at a flow rate of 30 μL/min. IgGs were immobilized on the activated spots by injecting them in the ligand (vertical) direction at 20 μg/mL in 10 mM Acetate pH 4.5 buffer for 1.5 minutes at […]. The activated surfaces were blocked by injecting 1M ethanolamine, pH 8.5 in the analyte direction for 3 minutes at 30 μL/min.
(§2) The analysis temperature for the BCMA binding analysis was 37° C. or 25° C. in a running buffer of HBS-T+, supplemented with 1 mg/mL BSA. A kinetic titration method was employed for the interaction analysis as described in Abdiche, et al. Human BCMA (huBCMA) or cynomolgus monkey BCMA (cyBCMA) analyte was injected in the analyte direction using a series of injections from low to high concentration. The concentrations used were 0.08 nM, 0.4 nM, 2 nM, 10 nM and 50 nM (a 5-membered series, with a 5-fold dilution factor and top concentration of 50 nM). The association time for a given analyte dilution was two minutes. Immediately after the 50 nM BCMA injection, dissociation was monitored for 2 hours.
(§3) The sensorgrams were double-referenced and fit to a 1:1 Langmuir with mass transport kinetic titration model in BIAevaluation Software version 4.1.1 (GE Lifesciences, Piscataway, N.J.).

cynomolgus monkey BCMA [2] = biological target: T2, cynomolgus monkey BCMA (cynomolgus monkey, UniProt A0A2K5UD97 1-53); experiment: SPR, IgG immobilised, 25 C
T2 construct: Soluble analyte in SPR; construct not described; also called cyBCMA; Cyno BCMA
Procedure: as §1, §2, §3

Human BCMA [3] = biological target: T1, Human BCMA; experiment: SPR, IgG immobilised, 37 C
Outline: (§4)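 IgGs were amine-coupled (EDC/NHS, 20 μg/mL in acetate pH 4.5) and BCMA, human or cynomolgus, was injected by kinetic titration at 0.08, 0.4, 2, 10 and 50 nM, 2 min each, in HBS-T+ pH 7.4 with 1 mg/mL BSA at 37° C or 25° C. Dissociation was followed for 2 hours.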

cynomolgus monkey BCMA [4] = biological target: T2, cynomolgus monkey BCMA; experiment: SPR, IgG immobilised, 37 C
Outline: as §4

T2 sequence (A0A2K5UD97 entry or part of it): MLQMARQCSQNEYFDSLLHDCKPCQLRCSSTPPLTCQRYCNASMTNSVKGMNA

| Binder | Kd (Human BCMA [1]) [nM] | T ½ (Human BCMA [1]) [min] | koff (Human BCMA [1]) [s⁻¹] | kon (Human BCMA [1]) [M⁻¹ s⁻¹] | Kd (cynomolgus monkey BCMA [2]) [nM] | T ½ (cynomolgus monkey BCMA [2]) [min] | koff (cynomolgus monkey BCMA [2]) [s⁻¹] | kon (cynomolgus monkey BCMA [2]) [M⁻¹ s⁻¹] | Kd (Human BCMA [3]) [nM] | T ½ (Human BCMA [3]) [min] | koff (Human BCMA [3]) [s⁻¹] | kon (Human BCMA [3]) [M⁻¹ s⁻¹] | Kd (cynomolgus monkey BCMA [4]) [nM] | T ½ (cynomolgus monkey BCMA [4]) [min] | koff (cynomolgus monkey BCMA [4]) [s⁻¹] | kon (cynomolgus monkey BCMA [4]) [M⁻¹ s⁻¹] |
| --- | --- | --- | --- | --- | --- | --- | --- | --- | --- | --- | --- | --- | --- | --- | --- | --- |
| L1.GDF/L3.KW/H3.AP (antibody, V domains shown, IgG) VH: EVQLLESGGGLVQPGGSLRLSCAASGFTFGSYAMTWVRQAPGKGLEWVSAISGSGGNTFYADSVKGRFTISRDNSKNTLYLQMNSLRAEDTAVYYCARVSPIAAPMDYWGQGTLVTVSS VL: EIVLTQSPGTLSLSPGERATLSCRASQSVGDFYLAWYQQKPGQAPRLLIYGASSRATGIPDRFSGSGSGTDFTLTISRLEPEDFAVYYCKHYGWPPSFTFGQGTKVEIK | 3.93 | 2.51 | 0.00461 | 1.17e+06 | 24.9 | 0.6 | 0.0203 | 814000 | – | – | – | – | – | – | – | – |
| L3.PY/L1.PS/H2.QL (antibody, V domains shown, IgG) VH: EVQLLESGGGLVQPGGSLRLSCAASGFTFGSYAMTWVRQAPGKGLEWVSAISGSGGNTFYADQLKGRFTISRDNSKNTLYLQMNSLRAEDTAVYYCARVSPIASGMDYWGQGTLVTVSS VL: EIVLTQSPGTLSLSPGERATLSCRASQSVSSSYPSWYQQKPGQAPRLLIYGASSRATGIPDRFSGSGSGTDFTLTISRLEPEDFAVYYCQHYPYPPSFTFGQGTKVEIK | – | – | – | – | – | – | – | – | 20.6 | 0.04 | 0.314 | 1.52e+07 | 0.97 | 18.2 | 0.000636 | 657000 |
| L3.PY/L3.KF/P6E01 (antibody, V domains shown, IgG) VH: EVQLLESGGGLVQPGGSLRLSCAASGFTFGSYAMTWVRQAPGKGLEWVSAISGSGGNTFYADSVKGRFTISRDNSKNTLYLQMNSLRAEDTAVYYCARVSPIASGMDYWGQGTLVTVSS VL: EIVLTQSPGTLSLSPGERATLSCRASQSVSSSYLAWYQQKPGQAPRLLIYGASSRATGIPDRFSGSGSGTDFTLTISRLEPEDFAVYYCKFYPYPPSFTFGQGTKVEIK | – | – | – | – | – | – | – | – | 0.72 | 5.56 | 0.00208 | 2.88e+06 | 3.48 | 1.39 | 0.0083 | 2.39e+06 |
| L3.PY/L1.PS/H3.AQ (antibody, V domains shown, IgG) VH: EVQLLESGGGLVQPGGSLRLSCAASGFTFGSYAMTWVRQAPGKGLEWVSAISGSGGNTFYADSVKGRFTISRDNSKNTLYLQMNSLRAEDTAVYYCARVSPIAAQMDYWGQGTLVTVSS VL: EIVLTQSPGTLSLSPGERATLSCRASQSVSSSYPSWYQQKPGQAPRLLIYGASSRATGIPDRFSGSGSGTDFTLTISRLEPEDFAVYYCQHYPYPPSFTFGQGTKVEIK | – | – | – | – | – | – | – | – | 0.55 | 6.46 | 0.00179 | 3.26e+06 | 1.72 | 2.67 | 0.00433 | 2.52e+06 |
| L3.PY/L1.PS/H3.TAQ (antibody, V domains shown, IgG) VH: EVQLLESGGGLVQPGGSLRLSCAASGFTFGSYAMTWVRQAPGKGLEWVSAISGSGGNTFYADSVKGRFTISRDNSKNTLYLQMNSLRAEDTAVYYCTRVSPIAAQMDYWGQGTLVTVSS VL: EIVLTQSPGTLSLSPGERATLSCRASQSVSSSYPSWYQQKPGQAPRLLIYGASSRATGIPDRFSGSGSGTDFTLTISRLEPEDFAVYYCQHYPYPPSFTFGQGTKVEIK | – | – | – | – | – | – | – | – | 0.76 | 4.7 | 0.00246 | 3.25e+06 | 2.14 | 2.09 | 0.00552 | 2.58e+06 |
| L3.PY/L1.PS/H3.YA (antibody, V domains shown, IgG) VH: EVQLLESGGGLVQPGGSLRLSCAASGFTFGSYAMTWVRQAPGKGLEWVSAISGSGGNTFYADSVKGRFTISRDNSKNTLYLQMNSLRAEDTAVYYCARVSPIYAGMDYWGQGTLVTVSS VL: EIVLTQSPGTLSLSPGERATLSCRASQSVSSSYPSWYQQKPGQAPRLLIYGASSRATGIPDRFSGSGSGTDFTLTISRLEPEDFAVYYCQHYPYPPSFTFGQGTKVEIK | – | – | – | – | – | – | – | – | 2.95 | 1.28 | 0.00905 | 3.07e+06 | 5.65 | 1.16 | 0.00998 | 1.77e+06 |
| P6E01/P6E01 (antibody, V domains shown, IgG) VH: EVQLLESGGGLVQPGGSLRLSCAASGFTFGSYAMTWVRQAPGKGLEWVSAISGSGGNTFYADSVKGRFTISRDNSKNTLYLQMNSLRAEDTAVYYCARVSPIASGMDYWGQGTLVTVSS VL: not shown | 4 | 2.8 | – | – | – | – | – | – | – | – | – | – | – | – | – | – |
